Results reported in patent publication US7326418B2, “Identification of novel factors that block programmed cell death or apoptosis by targeting JNK” (University of Chicago, priority 2001, dated 2008).

T1: ASK1 (Homo sapiens, UniProt Q99683)
T1 sequence (Q99683 1-1374): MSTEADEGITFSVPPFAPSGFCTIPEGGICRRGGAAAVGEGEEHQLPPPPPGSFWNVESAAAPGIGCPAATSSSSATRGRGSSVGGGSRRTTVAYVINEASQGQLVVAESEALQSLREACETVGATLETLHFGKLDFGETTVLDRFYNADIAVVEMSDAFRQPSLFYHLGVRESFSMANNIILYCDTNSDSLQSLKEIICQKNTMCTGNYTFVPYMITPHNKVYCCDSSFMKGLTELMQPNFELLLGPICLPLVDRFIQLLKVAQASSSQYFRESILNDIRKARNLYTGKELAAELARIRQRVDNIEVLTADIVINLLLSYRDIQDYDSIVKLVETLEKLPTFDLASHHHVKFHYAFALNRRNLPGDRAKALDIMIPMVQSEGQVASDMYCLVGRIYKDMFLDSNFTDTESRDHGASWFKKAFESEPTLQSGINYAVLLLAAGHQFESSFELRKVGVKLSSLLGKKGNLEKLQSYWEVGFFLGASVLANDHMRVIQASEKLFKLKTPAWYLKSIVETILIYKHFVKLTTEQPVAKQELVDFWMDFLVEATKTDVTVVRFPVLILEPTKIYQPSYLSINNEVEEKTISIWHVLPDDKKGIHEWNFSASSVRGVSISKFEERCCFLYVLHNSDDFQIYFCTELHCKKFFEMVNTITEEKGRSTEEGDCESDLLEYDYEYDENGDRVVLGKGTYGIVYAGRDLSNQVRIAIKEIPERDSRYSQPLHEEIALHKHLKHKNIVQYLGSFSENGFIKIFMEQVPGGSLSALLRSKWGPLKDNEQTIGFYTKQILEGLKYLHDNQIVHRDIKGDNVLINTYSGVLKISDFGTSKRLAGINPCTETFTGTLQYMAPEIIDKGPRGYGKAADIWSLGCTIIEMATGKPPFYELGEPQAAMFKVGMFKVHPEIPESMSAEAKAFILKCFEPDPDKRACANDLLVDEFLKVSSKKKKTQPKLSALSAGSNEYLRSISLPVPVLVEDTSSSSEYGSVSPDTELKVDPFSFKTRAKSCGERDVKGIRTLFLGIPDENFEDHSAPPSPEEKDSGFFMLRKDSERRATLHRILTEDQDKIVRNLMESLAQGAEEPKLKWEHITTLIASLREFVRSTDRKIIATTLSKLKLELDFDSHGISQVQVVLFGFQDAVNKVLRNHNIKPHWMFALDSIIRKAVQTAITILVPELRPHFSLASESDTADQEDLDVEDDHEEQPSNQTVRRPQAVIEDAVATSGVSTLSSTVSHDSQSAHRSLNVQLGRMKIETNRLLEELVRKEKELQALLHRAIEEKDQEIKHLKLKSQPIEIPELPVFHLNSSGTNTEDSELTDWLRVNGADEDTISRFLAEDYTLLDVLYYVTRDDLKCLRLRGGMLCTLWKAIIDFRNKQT


The molecules below were run against T1, ASK1 (assay: Kinase assay of immunoprecipitated FLAG-ASK1 with recombinant Gadd45β proteins). Settings: in vitro, even at high concentrations.
Assay type: biochemical
Design: expressed in transfected cells; host or cells: HEK-293; anti-FLAG immunoprecipitate
Procedure: Next, the functional consequences, in vitro, of the physical interactions of Gadd45β with kinases in the JNK pathway were assessed. Murine and human, full-length Gadd45J3 proteins were purified from E. coli as GST-Gadd45β and His6-tagged Gadd45β (His6 disclosed as SEQ ID NO: 46), respectively, according to standard procedures. Prior to employing these proteins in in vitro assays, purity of all recombinant polypeptides was assured by >98%, by performing Coomassie blue staining of SDS polyacrylamide gels. Then, the ability of these proteins, as well as of control GST and His6-EF3 (His6 disclosed as SEQ ID NO: 46)proteins, to inhibit kinases in the JNK pathways was monitored in vitro. FLAG-tagged JNKK2, JNKK1, MKK3, and ASK1 were immunoprecipitated from transiently transfected 293 cells using anti-FLAG antibodies and pre-incubated for 10 minutes with increasing concentrations of recombinant proteins, prior to the addition of specific kinase substrates (i.e. GST-JNK1 with JNKK1 and JNKK2; GST-p38[…] with MKK3; GST-JNNK1 or GST-JNKK2 with ASK1). […] These findings indicate that, upon binding to Gadd45β, JNKK2 is effectively inactivated.
A question was whether Gadd45β inhibited active MKK7, in vitro. FLAG-MKK7 was immunoprecipitated from TNFα-treated or untreated 293 cells, and kinase assays were performed in the presence of purified His6-Gadd45β (His6 disclosed as SEQ ID NO: 46), GST-Gadd45β, or control proteins (FIG. 28d; see also FIG. 28g). […] Consistent with the in vivo findings (FIG. 27), the inhibitory activity of Gadd45β was specific. […] Indeed, the effects of Gadd45β on MKK7 phosphorylation by TNFα may be due inhibition of the MKK7 ability to auto-phoshorylate and/or to serve as substrate for upstream kinases. Altogether, the findings identify MKK7 as a target of Gadd45β, and of NF-[…]B, in the JNK cascade. Of interest, MKK7 is a selective activator of JNK, and its ablation abolishes JNK activation by TNFα. Thus, blockade of MKK7 is sufficient on its own to explain the effects of Gadd45β on JNK signaling—i.e. its specific and near-complete suppression of this signaling. […]

Molecule	effect on ASK1 kinase activity
Gadd45β: purified recombinant His6-tagged Gadd45β protein; also used generically for the recombinant Gadd45β proteins (protein, UniProt O75293 1-160, looked up, His6 tag, purified recombinant His6-tagged Gadd45β protein; also used generically for the recombinant Gadd45β proteins) Growth arrest and DNA …: MTLEELVACDNAAQKMQTVTAAVEELLVAAQRQDRLTVGVYESAKLMNVDPDSVVLCLLAIDEEEEDDIALQIHFTLIQSFCCDNDINIVRVSGMQRLAQLLGEPAETQGTTEARDLHCLLVTNPHTDAWKSHGLVEVASYCEESRGNNQWVPYISLQER	did not hamper
His6-Gadd45β: human full-length Gadd45β purified from E. coli as His6-tagged protein (protein, UniProt O75293 1-160, looked up, full-length His6 tag, human full-length Gadd45β purified from E. coli as His6-tagged protein) MTLEELVACDNAAQKMQTVTAAVEELLVAAQRQDRLTVGVYESAKLMNVDPDSVVLCLLAIDEEEEDDIALQIHFTLIQSFCCDNDINIVRVSGMQRLAQLLGEPAETQGTTEARDLHCLLVTNPHTDAWKSHGLVEVASYCEESRGNNQWVPYISLQER	neither GST-Gadd45β nor His6-Gadd45β (His6 disclosed as SEQ ID NO: 46) had significant effects
GST-Gadd45β: full-length murine Gadd45β directly fused to GST, purified from E. coli (protein, left off: a dimerising Fc or GST, full-length murine Gadd45β directly fused to GST, purified from E. coli) MTLEELVASDNAVQKMQAVTAAVEQLLVAAQRQDRLTVGVYEAAKLMNVDPDSVVLCLLAIDEEEEDDIALQIHFTLIQSFCCDNDIDIVRVSGMQRLAQLLGEPAETLGTTEARDLHCLLVTNCHTDSWKSQGLVEVASYCEESRGNNQWVPYISLEER	neither GST-Gadd45β nor His6-Gadd45β (His6 disclosed as SEQ ID NO: 46) had significant effects
